Results as given in paper doi:10.1101/2022.12.09.519754, “Conformational restriction shapes inhibition of a multidrug efflux adaptor protein” (bioRxiv, 2022).

Assays:
[1] = target: the molecule itself; assay: native MS; AcrA^L in 100 mM ammonium acetate pH 7.4 with 0.03 % DDM
[2] = target: the molecule itself; assay: native MS; AcrA^L in 100 mM ammonium acetate pH 6.0 with 0.03 % DDM (2 x CMC); sampling cone 120 V, trap collision energy 50-200 V
[3] = target: T1, AcrB in SMALP (styrene maleic acid lipid particle) native nanodiscs (E. coli, UniProt P31224 1-1049); assay: native gel or EMSA; SMA-PAGE (native PAGE for SMALPs): AcrB in SMALP nanodiscs with AcrA^S or AcrA^SD; Novex Tris-glycine 4-20% gels, 25 mM Tris pH 8.8, 192 mM glycine, 150 V, 90-120 min, 4 °C, Coomassie stain; settings: both partners purified
T1 construct: AcrB, inner membrane transporter of AcrAB-TolC, E. coli; Embedded in native lipid nanodiscs; also called trimeric AcrB SMALPs; source: E. coli C43(DE3) ΔacrAB, pET15b; extracted from membranes with 2.5% SMA 2000, purified (nickel NTA, PD-10 desalting)
T1 sequence: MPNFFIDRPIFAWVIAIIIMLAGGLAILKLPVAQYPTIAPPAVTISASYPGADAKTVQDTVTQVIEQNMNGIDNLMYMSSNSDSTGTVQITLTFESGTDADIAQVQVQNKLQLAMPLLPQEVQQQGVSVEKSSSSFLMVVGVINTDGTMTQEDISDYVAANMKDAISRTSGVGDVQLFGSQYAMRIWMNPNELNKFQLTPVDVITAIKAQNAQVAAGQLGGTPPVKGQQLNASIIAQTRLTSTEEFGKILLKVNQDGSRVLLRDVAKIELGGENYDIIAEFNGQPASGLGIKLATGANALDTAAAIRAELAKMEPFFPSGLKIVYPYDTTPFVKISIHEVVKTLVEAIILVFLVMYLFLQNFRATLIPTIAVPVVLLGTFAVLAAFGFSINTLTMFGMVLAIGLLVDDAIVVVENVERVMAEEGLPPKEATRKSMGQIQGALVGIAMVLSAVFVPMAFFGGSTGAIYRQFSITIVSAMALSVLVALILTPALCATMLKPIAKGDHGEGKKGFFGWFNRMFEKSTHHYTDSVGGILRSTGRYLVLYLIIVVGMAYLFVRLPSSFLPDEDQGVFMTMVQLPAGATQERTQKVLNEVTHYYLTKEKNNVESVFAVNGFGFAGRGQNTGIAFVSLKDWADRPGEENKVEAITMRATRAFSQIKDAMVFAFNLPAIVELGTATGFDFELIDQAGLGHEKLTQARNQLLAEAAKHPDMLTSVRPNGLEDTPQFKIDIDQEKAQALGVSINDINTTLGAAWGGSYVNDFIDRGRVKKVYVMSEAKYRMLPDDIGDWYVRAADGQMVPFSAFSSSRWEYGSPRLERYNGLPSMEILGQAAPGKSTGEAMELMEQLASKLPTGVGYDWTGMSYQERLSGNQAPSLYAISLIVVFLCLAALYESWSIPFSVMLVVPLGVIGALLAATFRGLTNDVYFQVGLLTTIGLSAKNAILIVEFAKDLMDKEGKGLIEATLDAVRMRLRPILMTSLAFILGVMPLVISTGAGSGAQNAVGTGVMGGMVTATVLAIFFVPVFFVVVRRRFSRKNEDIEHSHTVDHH

B1: AcrA^L (lipidated AcrA, expressed from full length AcrA with its signal peptide) (natural protein)
chain: CDDKQAQQGGQQMPAVGVVTVKTEPLQITTELPGRTSAYRIAEVRPQVSGIILKRNFKEGSDIEAGVSLYQIDPATYQATYDSAKGDLAKAQAAANIAQLTVNRYQKLLGTQYISKQEYDQALADAQQANAAVTAAKAAVETARINLAYTKVTSPISGRIGKSNVTEGALVQNGQATALATVQQLDPIYVDVTQSSNDFLRLKQELANGTLKQENGKAKVSLITSDGIKFPQDGTLEFSDVTVDQTTGSITLRAIFPNPDHTLLPGMFVRARLEEGLNPNAILVPQQGVTRTPRGDATVLVVGADDKVETRPIVASQAIGDKWLVTEGLKAGDRVVISGLQKVRPGVQVKAQEVTADNNQQAASGAQPEQSKS
modifications: lipidated (palmitoylation) at Cys25 after cleavage of signal peptide 1-24
notes: AcrA, periplasmic adaptor protein of AcrAB-TolC, E. coli; full length AcrA amplified from genomic DNA; signal peptide residues 1-24 are cleaved and Cys25 is lipidated, so the protein in the assay starts at Cys25; Measured in DDM micelles (0.03 % DDM, 2 x CMC); source: E. coli C43(DE3) ΔacrAB, pET28a; solubilised from membranes with 1% DDM, purified (HiTrap, SEC) in 0.03% DDM
[1]
  stoichiometry N: ≤ 5
[2]
  stoichiometry N: 2

B2: AcrA^S (soluble AcrA lacking signal peptide and lipidation, Cys25Met) (natural protein)
chain: MDDKQAQQGGQQMPAVGVVTVKTEPLQITTELPGRTSAYRIAEVRPQVSGIILKRNFKEGSDIEAGVSLYQIDPATYQATYDSAKGDLAKAQAAANIAQLTVNRYQKLLGTQYISKQEYDQALADAQQANAAVTAAKAAVETARINLAYTKVTSPISGRIGKSNVTEGALVQNGQATALATVQQLDPIYVDVTQSSNDFLRLKQELANGTLKQENGKAKVSLITSDGIKFPQDGTLEFSDVTVDQTTGSITLRAIFPNPDHTLLPGMFVRARLEEGLNPNAILVPQQGVTRTPRGDATVLVVGADDKVETRPIVASQAIGDKWLVTEGLKAGDRVVISGLQKVRPGVQVKAQEVTADNNQQAASGAQPEQSKS
notes: AcrA, E. coli; lacks signal peptide residues 1-24; Cys25 replaced by a starting methionine (Met25); not lipidated; source: E. coli C43(DE3) ΔacrAB, pET28a; purified from the cytoplasmic fraction (HiTrap, SEC)
[3]
  stoichiometry N: 1
